The values below come from patent US20040230039A1 (YEDA RESEARCH AND DEVELOPMENT, published 2004).

B2: human p55-IC (intracellular domain of human p55 TNF receptor, residues 206-426) (receptor, UniProt P19438 235-455, looked up)
chain: RYQRWKSKLYSIVCGKSTPEKEGELEGTTTKPLAPNPSFSPTPGFTPTLGFSPVPSSTFTSSSTYTPGDCPNFAAPRREVAPPYQGADPILATALASDPIPNPLQKWEDSAHKPQSLDTDDPATLYAVVENVPPLRWKEFVRRLGLSDHEIDRLELQNGRCLREAQYSMLATWRRRTPRREATLELLGRVLRDMDLLGCLEDIEEALCGPAALPPAPSLLR
notes: range 206-426; Gal4 hybrid in yeast; Numbering as printed; may count on the mature receptor; also called 206-426 p55; intracellular domain of human p55-R (CD120a)
B7: MORT-1 (FADD), human, full-length (other, UniProt Q13158 1-208, looked up)
chain: MDPFLVLLHSVSSSLSSSELTELKFLCLGRVGKRKLERVQSGLDLFSMLLEQNDLEPGHTELLRELLASLRRHDLLRRVDDFEAGAAAGAAPGEEDLCAAFNVICDNVGKDWRRLARQLKVSDTKIDSIEDRYPRNLTERVRESLRIWKNTEKENATVAHLVGALRSCQMNLVADLVQEVQQARDLQNRSGAMSPMSWNSDASTSEAS
notes: Gal4 hybrid in yeast; also expressed in mammalian cells; also called HF1
B9: MACHβ1 (ORF-B of MACH) (other, human, UniProt Q14790-5 1-235, looked up)
chain: MDFSRNLYDIGEQLDSEDLASLKFLSLDYIPQRKQEPIKDALMLFQRLQEKRMLEESNLSFLKELLFRINRLDLLITYLNTRKEEMERELQTPGRAQISAYRVMLYQISEEVSRSELRSFKFLLQEEISKCKLDDDMNLLDIFIEMEKRVILGEGKLDILKRVCAQINKSLLKIINDYEEFSKERSSSLEGSPDEFSNDFGQSLPNEKQTSGILSDHQQSQFCKSTGESAQTSQH
notes: Gal4 hybrid in yeast; also expressed in mammalian cells (34 kDa); also called MACH B; MACH ORF-B
B10: MACHα1 (C360S) (enzyme)
chain: MDFSRNLYDIGEQLDSEDLASLKFLSLDYIPQRKQEPIKDALMLFQRLQEKRMLEESNLSFLKELLFRINRLDLLITYLNTRKEEMERELQTPGRAQISAYRVMLYQISEEVSRSELRSFKFLLQEEISKCKLDDDMNLLDIFIEMEKRVILGEGKLDILKRVCAQINKSLLKIINDYEEFSKERSSSLEGSPDEFSNGEELCGVMTISDSPREQDSESQTLDKVYQMKSKPRGYCLIINNHNFAKAREKVPKLHSIRDRNGTHLDAGALTTTFEELHFEIKPHDDCTVEQIYEILKIYQLMDHSNMDCFICCILSHGDKGIIYGTDGQEAPIYELTSQFTGLKCPSLAGKPKVFFIQASQGDNYQKGIPVETDSEEQPYLEMDLSSPQTRYIPDEADFLLGMATVNNCVSYRNPAEGTWYIQSLCQSLRERCPRGDDILTILTEVNYEVSNKDDKKNMGKQMPQPTFTLRKKLVFPSD
notes: Gal4 hybrid in yeast; also called MACHα(C360S)

The subject of series [1] is T1, Acetyl-Asp-Glu-Val-Asp-a-(4-Methyl-Coumaryl-7-Amide).
T1 sequence: DEVD

Series [2] relates to T2, Acetyl-Tyr-Val-Ala-Asp-AMC.
T2 sequence: YVAD

The target of the next series is T3, FLAG-MORT-1 (UniProt Q13158 1-208).
T3 construct: Expressed and 35S-labeled in HeLa cells; yielded proteins of about 27, 28, 32 and 34 kD; also called MORT-1-FLAG fusion protein; not shown: FLAG octapeptide (Eastman Kodak), N-terminal
T3 sequence (looked up): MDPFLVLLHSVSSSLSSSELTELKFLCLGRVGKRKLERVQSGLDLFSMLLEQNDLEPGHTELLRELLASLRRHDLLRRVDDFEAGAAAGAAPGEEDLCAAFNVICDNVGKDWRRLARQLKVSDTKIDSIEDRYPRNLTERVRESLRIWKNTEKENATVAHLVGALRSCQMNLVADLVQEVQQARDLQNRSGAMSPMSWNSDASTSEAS
The series is described as follows: in vitro binding of 35S-labeled FLAG-MORT-1 from HeLa extracts to GST fusion on glutathione beads, SDS-PAGE and autoradiography. As for the experimental part:
Glutathione S-transferase (GST) fusions with the wild type or a mutated Fas-IC were produced and adsorbed to glutathione-agarose beads; see Boldin et al., 1995; Current Protocols in Molecular Biology, 1994; Frangioni and Neel, 1993). […] The extracts were prepared in a buffer containing 50 mM Tris-HCl, pH 7.5, 150 mM NaCl, 0.1% NP-40, 1 mM dithiotreitol, 1 mM EDTA, 1 mM phenylmethylsulfonyl fluoride, 20 μg/ml Aprotonin, 20 μg/ml Leupeptin, 10 mM sodium fluoride and 0.1 mM sodium vanadate (1 ml per 5×10⁵ cells).

The series “MACHβ1 (ORF-B of MACH)” deals with B9. The series is described as follows: yeast two-hybrid beta-galactosidase filter assay. As for the experimental part: (§1) Their interaction was assessed by a β-galactosidase expression filter assay as described in Boldin et al., (1995b). The results are presented in terms of the time required for the development of strong color. […] Except where otherwise indicated, all experimental procedures for the findings presented are as described above (see also Boldin et al., 1995).

Series [3] has as its target T4, MACHα1 (human, UniProt Q14790 1-479).
T4 construct: also called CASP-8α1
The series is described as follows: yeast two-hybrid beta-galactosidase filter assay. As for the experimental part: as §1

Series [4] has as its target B10. The series is described as follows: yeast two-hybrid beta-galactosidase filter assay. As for the experimental part: as §1
The target in series [5] is B7. The series is described as follows: yeast two-hybrid beta-galactosidase test. As for the experimental part:
(§2) The interaction of the proteins encoded by the Gal4 DNA binding domain and activation-domain constructs (pGBT9 and PGAD-GH) within transfected SFY526 yeasts was assessed by β-galactosidase expression filter assay. […] The intracellular domains of human p55 TNF receptor (p55-IC residues 206-426), human CD40 (CD40-IC, residues 216-277) and human p75 TNF receptor (p75-IC, residues 287-461) as well as lamin, cyclin D and “empty” Gal4 (pGBT9) vectors served as negative controls in the form of DNA-binding domain constructs. SNF-1 and SNF4 served as positive controls in the form of DNA-binding-domain (SNF1) and activation-domain (SNF4) constructs. “Empty” Gal4 vectors (pGAD-GH) also served as negative controls in the form of activation domain constructs. The symbols “++” and “+” used in the presentation of the results of the above analysis denote the development of strong color within 30 and 90 min of the assay, respectively; and “−” denotes no development of color within 24 h.

The target of series [6] is T5, MORT-1 (FADD), human, full-length (human), Q13158.
T5 chain: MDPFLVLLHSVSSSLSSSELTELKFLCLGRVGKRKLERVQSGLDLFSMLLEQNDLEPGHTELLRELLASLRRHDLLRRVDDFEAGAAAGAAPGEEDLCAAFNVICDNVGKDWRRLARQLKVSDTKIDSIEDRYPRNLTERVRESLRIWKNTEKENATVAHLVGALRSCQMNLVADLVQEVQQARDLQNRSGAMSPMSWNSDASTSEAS
The series is described as follows: yeast two-hybrid beta-galactosidase filter assay; activation-domain hybrid against DNA-binding-domain hybrid (row); +++ = strong color within 30 min. The note with it: remark: other sources report otherwise.

The target in series [7] is B2. The series is described as follows: yeast two-hybrid beta-galactosidase test. As for the experimental part:
as §2

In a further series the target is T6, TRADD (human, UniProt Q15628 1-312, limits assumed).
T6 construct: Gal4 hybrid in yeast
T6 sequence (looked up): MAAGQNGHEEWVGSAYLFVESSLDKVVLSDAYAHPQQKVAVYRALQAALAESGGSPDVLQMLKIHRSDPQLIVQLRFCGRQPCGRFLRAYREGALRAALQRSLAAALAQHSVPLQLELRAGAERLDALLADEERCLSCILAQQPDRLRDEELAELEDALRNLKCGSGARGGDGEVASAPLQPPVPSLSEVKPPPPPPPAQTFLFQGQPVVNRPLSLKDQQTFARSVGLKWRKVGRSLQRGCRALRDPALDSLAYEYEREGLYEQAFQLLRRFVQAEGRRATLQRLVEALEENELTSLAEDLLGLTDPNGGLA
The series is described as follows: yeast two-hybrid screen of a human B cell library with MORT-1 as bait.

Series [8] has as its target T4, MACHα1. The series is described as follows: yeast two-hybrid test. An excerpt: (§3) Except where otherwise indicated, all experimental procedures for the findings presented are as described above (see also Boldin et al., 1995).
Series [9] concerns the target B10. In words: yeast two-hybrid test.
Excerpt: as §3

Series [10] concerns the molecule itself. In words: yeast two-hybrid beta-galactosidase filter assay; activation-domain hybrid against DNA-binding-domain hybrid (row); + = strong color within 90 min.
Procedure: The DNA-binding domain constructs were prepared in pGBT9 vectors and the activation domain constructs were prepared in pGAD-GM vectors. […] In the assay, the development of color was determined, where the greater the color development, the greater the interaction between the constructs encoded by the DNA-binding domain and activation domain.
The series “yeast two-hybrid test” concerns the molecule itself. The series is described as follows: yeast two-hybrid test.
Excerpt: as §3

Bounds are passed on as bounds.

Regarding GST fusion of the full-length MACHα1, in [1], the “cleavage of fluorogenic peptide substrate (AMC release) by bacterial lysates” value (from here on “cleavage”) is on record as “did not cleave Ac-DEVD-AMC”. Consider “GST fusion of the CED3/ICE homology region of MACHα1 (Ser217 through the C-terminus)”, for which the “cleavage” value in series [2] was “They had no measurable proteolytic activity, though, against the IL-1β-precursor sequence-derived fluorogenic substrate”; in series [1], “cleaved effectively the PARP sequence-derived fluorogenic substrate”. For “GST fusion of MACHα1 Asp374 through the C-terminus”, the “cleavage” value in series [1] is listed as “Nor did cleavage occur”. Still for that read-out and setting: next, GST fusion of MACHα1 Ser217 till Asp374: “Nor did cleavage occur”; “GST-fused MACH CED3/ICE-homology region with Cys360 replaced by Ser”: “No cleavage was observed”.

B1: GST-huFas-IC (receptor, human, UniProt P25445 191-335, looked up)
chain: KRKEVQKTCRKHRKENQGSHESPTLNPETVAINLSDVDLSKYITTIAGVMTLSQVKGFVRKNGVNEAKIDEIKNDNVQDTAEQKVQLLRNWHQLHGKKEAYDTLIKDLKKANLCTLAEKIQTIILKDITSDSENSNFRNEIQSLV
notes: domain: intracellular domain; Produced in E. coli, attached to glutathione beads; also called GST fusion with the human Fas-IC; GST-Fas-IC; not shown: glutathione S-transferase (GST) fusion partner
With B1, the binding result with FLAG-MORT-1 is on record as “binds”. In the case of B2, the binding result in the series with MACHβ1 (ORF-B of MACH), in the series with MACHα1 [3] and with MACHα1 (C360S) [4] was “no binding” each time.

B3: mouse Fas-IC (receptor, UniProt P25446 187-327, looked up)
chain: RKYRKRKCWKRRQDDPESRTSSRETIPMNASNLSLSKYIPRIAEDMTIQEAKKFARENNIKEGKIDEIMHDSIQDTAEQKVQLLLCWYQSHGKSDAYQDLIKGLKKAECRRTLDKFQDMVQKDLGKSTPDTGNENEGQCLE
notes: domain: intracellular domain
Consider B3, for which the binding result in series [5] was “binds”.

B4: mouse Fas-IC I225A (receptor, UniProt P25446 187-327, looked up)
chain: RKYRKRKCWKRRQDDPESRTSSRETIPMNASNLSLSKYIPRIAEDMTIQEAKKFARENNAKEGKIDEIMHDSIQDTAEQKVQLLLCWYQSHGKSDAYQDLIKGLKKAECRRTLDKFQDMVQKDLGKSTPDTGNENEGQCLE
notes: domain: intracellular domain; Position as printed; may count on the mature receptor
For the molecule B4, in [5], the binding result was “no binding”.

B5: GST-mFas-IC (receptor, mouse, UniProt P25446 187-327, looked up)
chain: RKYRKRKCWKRRQDDPESRTSSRETIPMNASNLSLSKYIPRIAEDMTIQEAKKFARENNIKEGKIDEIMHDSIQDTAEQKVQLLLCWYQSHGKSDAYQDLIKGLKKAECRRTLDKFQDMVQKDLGKSTPDTGNENEGQCLE
notes: domain: intracellular domain; Produced in E. coli, attached to glutathione beads; also called GST fusion with the mouse Fas-IC; not shown: glutathione S-transferase (GST) fusion partner
As for B5, the binding result with FLAG-MORT-1 is on record as “binds”.

B6: mouse Fas-IC I225N (receptor, UniProt P25446 187-327, looked up)
chain: RKYRKRKCWKRRQDDPESRTSSRETIPMNASNLSLSKYIPRIAEDMTIQEAKKFARENNNKEGKIDEIMHDSIQDTAEQKVQLLLCWYQSHGKSDAYQDLIKGLKKAECRRTLDKFQDMVQKDLGKSTPDTGNENEGQCLE
notes: domain: intracellular domain; The text says 'Ile to Leu' but labels the mutant I225N; Position as printed; may count on the mature receptor; also called lprcg mutation
With B6, the binding result in [5] is recorded as “no binding”.

B7: the time to development of strong color (beta-galactosidase filter assay, yeast two-hybrid) in [6] was less than 30 min. The binding result in series [7] is recorded as “no binding”; in the series with TRADD it was “binds”.

B8: MORT-1 fragment residues 130-245 (MORT-1 DD) (other, human, UniProt Q13158 82-197, looked up)
chain: FEAGAAAGAAPGEEDLCAAFNVICDNVGKDWRRLARQLKVSDTKIDSIEDRYPRNLTERVRESLRIWKNTEKENATVAHLVGALRSCQMNLVADLVQEVQQARDLQNRSGAMSPMS
notes: Gal4 hybrid in yeast; expressed in HeLa cells for the cytotoxicity test; also called MORT 'tail'
Consider B8, for which the binding result in series [5] was “no binding”. On to B9, for which the binding result (with MACHα1 [8]; with MACHα1 (C360S) [9]; in [10]) was “binds” in each case.

Regarding B10, the binding result in “yeast two-hybrid test” is reported as “binds”.
